Assay results as given in the nanobody polyreactivity screen of Harvey et al. (2022).

Experiment: yeast display, Sf9 membrane polyspecificity reagent, FACS + sequencing; frameworks hold sequencing errors
How it was run: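 A nanobody's polyreactivity label depends on the gate it was sorted from. Yeast display cells were stained with 10% biotinylated, detergent-solubilized Sf9 membrane reagent for 1 hour at 4 °C, enriched on streptavidin microbeads and sorted by FACS. The low and high (top ~1%) gates were set on anti-HA fluorescence for expression and streptavidin fluorescence for reagent binding.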

| Sequence | polyreactivity (PSR sort gate) |
| --- | --- |
| QVQLVESGGGLVQAGGSHRLSFAASGSIFWRNAMGWYRQAPGKERELVAVISGGSTYADSVKGRFTISRDNAKNTVYLKMNSLKPEDTAVYFCNADLYVSSYPKGYDYWGQGTQVTVSS | low polyreactivity |
| QVQLVESGGGLVQAGGSHRLSSAASGSTFAYHHMGWYRQAPGKEREFVADIRSGGNTNYADSVKGRFTISRDNAKKTVYLLMNSLNPEDTAVYYCATDGYRIDVYHPDYRYDYWGQGSQVTVSS | low polyreactivity |
| QVQLVESGGGLVQAGGSIRISCAASGSIFIIYAMGWYRQATGKEWELVAGIRGRCGSTYYADSVKGRFTISRDNAKNTVYLQMNSLKPEDTAVYYCDASVYRGYNYWGQGTQVTVSW | high polyreactivity |
| QVQLVESGGGLVQAGGSIRLSCAASGFISYYYAMGWYRQAPGKERELVAAITKSGGSTYYADSVKGRFTISRDNAKNTVYLQMNSLKPEDTAVDYCAAVRSTRNSTSRLYGYWGQGTQVNVSS | low polyreactivity |
| QVQLVESGGGLVQAGGSIRLSCAASGFTFDQYAMGWYRQAPGKERELVAAISSGTRTYYADSVKGRFTISRDNAKNTVYLQMNSLKPEDTAVYYCIARSVRYRDLYDYWGQGTQVTVSS | low polyreactivity |
| QVQLVESGGGLVQAGGSIRLSCAASGITFRPNAMGWYRQAPGKERELVAAISSGDGTYADSVKGRFTISRDNAKNTVYLQMNSLKPEDTAVYYCNATGQSYVTSEYDYWGQGTQVTVSS | low polyreactivity |
| QVQLVESGGGLVQAGGSIRLSCAASGRIFHLYAMGWYRQAPGKERELVAAISRGGDTYYADSVKGRFTISRDNAKNTVYLQMYSLKPEDTAVYYCAAGRWVYTVGYYPVGYYYWGQGTQVTVSS | high polyreactivity |
| QVQLVESGGGLVQAGGSIRLSCAASGRIFKGYAMGSYRQAPGKERELVAAISSRGGITYYADSVKGRFTISRDNAKNSVYLEMNSLNPEDTAVYYCAAVYKWSRYGGYKYWGQGTQVTVSS | low polyreactivity |
| QVQLVESGGGLVQAGGSIRLSCAASGRIFQYYAMGWYRQAPGKERELVAAISRSGGRTRYADSVKGRFTISRDNAKNTVYLQMNSLKPEDTAVYYCAASYGYDSTSLYDYWGQGTQVTVSS | high polyreactivity |
| QVQLVESGGGLVQAGGSIRLSCAASGRTFHYNVMGGYRQAPGNERELVAAITNTGGSTYYADSVKGRFTISRDNAKNTVYLQMYSLKPVDTAVYYCAAVIWGRRYGAYPYEYWGQGTQVTVSS | low polyreactivity |
| QVQLVESGGGLVQAGGSIRLSCAASGSIFGAYAMGWYRQAPGKERELVATITLRDGSTYYADSVKGRFTSSRDNAKNTVYLQMNSLKPEDTAVYYCATYYSAINYGWSKTILYDYWGQGTQVTVSS | low polyreactivity |
| QVQLVESGGGLVQAGGSIRLSCAASGSIFRIYVMGWYRQAPGQERELVAAINSGGRTKYADSVKARFTISRDNAKNTVYLQMNSLKPEDTAVYYCAAAFQYRKGVSSLYASWGQGTQVTLSS | high polyreactivity |
| QVQLVESGGGLVQAGGSIRLSCAASGSTFGGNAMGWYRQAPGKERELVAAITGTGGRTFYADSVKGRFTISRDNAKNTVYLQMNSLKPEDTAVYFCAADSYIYSVNYWGQGTQVTVSS | low polyreactivity |
| QVQLVESGGGLVQAGGSIRLSCAASGSTFRVYAMGWYRQAPGKERELVAAISSSGGITYYADSVKGRFTISRDNAKNTVYLQMNSLKPEDTAVYYCAKGTVIHVLYDYWGQGTQVTVSS | low polyreactivity |
| QVQLVESGGGLVQAGGSIRLSCAASGSTFYAYAMGWYRQAPGKERELVAAIDTGGSTYYADSVKGRFTISRDNAKNTVYLQMNSLKPEDTAVYYCNAVVDTTEYPYEYDYWGQGTQVTVSS | low polyreactivity |
| QVQLVESGGGLVQAGGSIRLSCAASVFTFRANGMGWYRKAPGKERELVATITSGGTTNYADSVKGRFTISRDNAKNTVYLQMNSLIPEDTAVYYCNAGSVSDRQMDYWGQGTQGTVSS | low polyreactivity |
| QVQLVESGGGLVQAGGSIRLSCAPSGSPNVTYDMGWYRQAPGKESELVASISRGGSTKYADSVKGRFTISRDNAKNTVFLQMNSLKPEDTAVFYGAAKAKNYRLGPYDYWGQGTQVTVSS | low polyreactivity |
| QVQLVESGGGLVQAGGSIRLSCSASGRIFNRNAMGWYRKAPGKERELVAAISSDTSTNYADSVKGRFTISRDNAKNNVYLQMNSLKPEDTAVYYCNADGYYDMDYWGQGTQVTVSS | low polyreactivity |
| QVQLVESGGGLVQAGGSIRLTCAASGLIIGVYAKGWYRQAPGKERELVAAITDGGSTYYADSVKGRFTISRDNEQNTVSLQMNSVKPEDTAVYYCAREQGVNRNHDYWGQGTQVTVSS | low polyreactivity |
| QVQLVESGGGLVQAGGSLGLSCAASGFIVGYYTMGWDRQAPGKERELVAAISSSGGRTYDADSVKGRFTISRDKAKNTVYFQMNSLKPEDTAVYYCNADRTLRFGYGYCGQGTQVTVSS | low polyreactivity |
| QVQLVESGGGLVQAGGSLGLSCAASGIIFGTYGMGWYRQAPGKERELVAAITTRGSSTYYADSVKGRFTISRDNAKNSVYLQMNSLKPEDTAVYYCAAVSVRRNRMDSWGQGTQVTVSS | high polyreactivity |
| QVQLVESGGGLVQAGGSLGLSCAASGLIFQAYAMGWYRQAPGKERELVAAINWSGDSTYYADSVKGRFTISRDNAKYTVYLQMNSLKPEDTAVYYCAARYRRAKYGYWGQGTQVTVSS | high polyreactivity |

| Sequence | polyreactivity (PSR sort gate) |
| --- | --- |
| QVQLVESGGGLVQAGGSLGLSCAASGLTFTHYTMGWYRQAPGKERELVAGISQTGGSTYYADSVKGRFTISRDNAKNTVYLQMNSLKPEDTAVYYCSRVFPRPRTGYYYWGQGTQVTVSS | high polyreactivity |
| QVQLVESGGGLVQAGGSLGLSCAASGNMFGRYAMGWYRQAPGKEREYVATITYSGGSTYYADSVKGPFTISRDNAKNTVYLQMNSLKQEDTAVYYCAARVGRPTLVAAKYDYWGQGTQVTVSS | high polyreactivity |
| QVQLVESGGGLVQAGGSLGLSCAASGRTFFDYAMGWYRQAPGKERELVAAINWSGGRTYYADSVKGRFSISRDNAKNTVYLQMNSLKPEDTAVYDCNVYTRGRYEYWGQGTQVTVSS | low polyreactivity |
| QVQLVESGGGLVQAGGSLGLSCAASGRTFGPYAMGWYRQAPGKERELVAAISASGASTSYADSVKGRFTIARDNAKNTVYLQMNSLKPEDTAVYYCARSYYHRPFGYWGQGTQVTVSS | low polyreactivity |
| QVQLVESGGGLVQAGGSLGLSCAASGRTFGRYVMGWYRLAPGTEWELVAAIRSSGGGTYYADSVKGRFTISRDNAKNTVYLQMNSLKPEETAVYYCAKEYSIGIRWEYDYWGQGTQVTVSS | low polyreactivity |
| QVQLVESGGGLVQAGGSLGLSCAASGSTLYGNAMGWYRQAPGKERELVAAINTGGSTNYADSVKGRFTISRDNAKNTVYVQMNSLKPEDTAVYYCAADYEWDATHDYWGQGTQVTVSS | low polyreactivity |
| QVQLVESGGGLVQAGGSLGLSCAAYGSTFRYYAMGWYRQAPGKERELVAAISSAGNTYYADSVKGRFTISRDNAKNTVYLQMNSLKPEDTAVYYCAAKYSYYTYAGDGGLFSCSYGYWGQGTQVTVSS | low polyreactivity |
| QVQLVESGGGLVQAGGSLLISCAASGRIFYYNTMGWSRQEPGKESELVAAITTNGGSTYYADSVKGRFTISRDNAKITVYLQMNSLNPEDTAVYYCNRDRYPYYSAYNYWGQGTQVTVSS | low polyreactivity |
| QVQLVESGGGLVQAGGSLLLICAASGFIFVPYAMGWYRQAPGKEREFVATITWRGDSTYYADSVKGRFTISRDNAKNTVYLQMNSLKPEDTAVYYCAVYPIRLWAYDYWGQGTQVTVSS | low polyreactivity |
| QVQLVESGGGLVQAGGSLLLICAASGSILGTNAMGWYRQAPGKERELVAAISSSGRTSYADSVKGRFTISRDNAKNTVSLQMNSLKPEDTAVYYCNASNYIVLIIDPDAAPWLYDYWGQGTQVTVSS | low polyreactivity |
| QVQLVESGGGLVQAGGSLLLICSASGSTFVRHAMGWYRHAPGKESELDAAISTRGGSTSYADSVKGRFTISRDNSKNSVYLQMKSLKQEDTAVYYCAKVLAYSQGIRHGYWGQGTQVTVSS | low polyreactivity |
| QVQLVESGGGLVQAGGSLLLRCAASGSIFPWNTMGWNRQAPGKERELVARISTSGASTYYADSVKGRFTISRDNAKNTVYLQMNSRKPEDTAVYYGAARDWSHRPRGYDYWGQGTQVTVSS | high polyreactivity |
| QVQLVESGGGLVQAGGSLLLSCAASGFTFRYYAMGWYRQAPGKERELVAAITGSGTRTYYADSVKGRFTISRDYGKNTVYLQMNSLKPEDPAVYYCNAPRQPRWFDYWGQGTQVTVSS | high polyreactivity |
| QVQLVESGGGLVQAGGSLLLSCAASGFTLEKNAMGWYRTAPGKERELVADISSTDSTNYADSVKGRFTISRDNAKITVYFQMNSVKPEDTAVYYCGRYDGPGTEEFDYWGQGSQVTVSS | low polyreactivity |
| QVQLVESGGGLVQAGGSLLLSCAASGGTFGGYTMGWYRQAPVKERELVAAITRSGSSTFYADSVKGRFTISRDNAKNTVYLQMNSLKPEDTAVYYCAALWHAVFYADYDYWGQGTQVSVSS | high polyreactivity |
| QVQLVESGGGLVQAGGSLLLSCAASGIIFRYNTMGLYRQAPGKERELVAAIRTTGGSTNYADSVKGRFTISRDNAKNTVYLQMNSLKPEDTAVYYCNKGVSSRAFDYWGQGTQVTVSS | low polyreactivity |
| QVQLVESGGGLVQAGGSLLLSCAASGITSWYYVMGWYRQAPGKERELVAAITRSGGSTYYADSVKGRFTISRDTAKNTVFLQMNSLKPEDTAVYYCAARSYPQRWTTYPYGYWGQGTQVTVSS | high polyreactivity |
| QVQLVESGGGLVQAGGSLLLSCAASGRIFRYNAMGWYRQAPGKERELVAAISWTVGRTYYADSVKGRFTISRDNAMNTVYLQMNSLKPEDTAVYYCATYFRVWYRSYDYWGQGTQVTVSS | high polyreactivity |
| QVQLVESGGGLVQAGGSLLLSCAASGRTFATNAMGWNRQAPGKERELVADISGGGSTYYADSVKGRFTISRDNAKNTVYLQMNSMKPEDTAVYYCAARDYHWFQWYDYWGQGTQVTVSS | low polyreactivity |
| QVQLVESGGGLVQAGGSLLLSCAASGRTFYYNDMGWYRQAPGKERELVASISYGGSTYYADSVKGRFTISRDNAKNTVYLQMNSLKPEDTAVYYCATVDWRWRYARRPRYDYWGQGTQVTVSS | high polyreactivity |
| QVQLVESGGGLVQAGGSLLLSCAASGSIFFPNAMGWYRQAPGKERELVAAINWSGDSTYYADSVKGRFTISRDNAKNTVYLQMNSLKPVDTAVYSCNATYPWFDYDYWGQGTQVTVSS | low polyreactivity |
